Assays:
[1] = molecular target: GST-MYC(1-263) (human); assay: pull-down + cross-linking
[2] = molecular target: GST-MYC 1-98 (human); assay: pull-down
[3] = molecular target: GST-MYC(2-108) E100A (human); assay: pull-down
[4] = molecular target: GST-MYC(2-108) E54A (human); assay: pull-down
[5] = molecular target: GST-MYC(2-108) E[54,100]A (human); assay: pull-down

Substance	percent of the protein in the extract crosslinked [1] [%]	percent reduction of GCN5 binding on deletion of residues 99-108 [2] [%]	percent reduction of GCN5 binding against wt GST-MYC(2-108) [3] [%]	percent reduction of GCN5 binding against wt GST-MYC(2-108) [4] [%]	percent reduction of GCN5 binding against wt GST-MYC(2-108) [5] [%]
GCN5 acetyltransferase, endogenous in HeLa cells (from UniProt Q92830 1-837) (enzyme)	1				
purified recombinant human GCN5-S (pRSETA-His6-GCN5-S) (enzyme)		90	20	40	50
transcription/transformation-associated protein (TRRAP), endogenous in HeLa cells (from UniProt Q9Y4A5 1-3859) (natural protein)	1				

From publication PMC4039629
